Data as given in WO2001000678A1 (dated 2001).

Target: HIV-1 MN viral lysate (native gp120) (HIV-1 isolate MN, UniProt P05877 32-513)
Assay: ELISA, biotinylated Fab on viral lysate; reference HIV-1 IIIb lysate

B1: Fab 7 (Fab, V domains shown)
VH: EVQLQESGPGLVKPSETLSLTCTVSGGSISSSSYYWGWIRQPPGKGLEWIGSIYYSGSTYYNPSLKSRVTISVDTSKNQFSLKLSSVTAAYTAVYYCARRCTSGVCYGAFDYWGQGTPVTVSS
VL: DLVMTQSPSFLSASVGDRVTITCRASQGISSYLAWYQQKSGKAPKLLIYGTSILQSGVPSRFSGSGSGTESTLTISSLQPEDFATYYCQQLNSYPITFGQGTRLEIK
- binding relative to the level seen with IIIb: ~50%
